± gives the standard deviation of the averaged measurements.
test system: ATP; assay: switch fluorescence ratio, 500 uM ATP over buffer (Cy3 cluster intensity, sum of 5 cycles each) (fold (ratio)); higher = stronger signal-on switching upon ATP binding; sequences stand for … in TCGTCGGCAGCGTCAGATGTGTATAAGAGACAGTTTTTTTTTTTTTTTTTTTTTTTTT…TC; details: aptamer strand: ATP DNA aptamer (quencher-CACCTGGGGGAGTATTGCGGAGGAAGG + anchor), 100 nM annealed; ATP concentration: 500 uM
Outline: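 For every switch-domain sequence, the fluorescence ratio is the mean of per-cluster values, each being summed target-cycle Cy3 intensity over summed buffer-cycle Cy3 intensity. Clusters outside 100-1000 RFU were excluded. On a modified Illumina MiSeq flow-cell, the Cy3-labelled switching-strand clusters were annealed to 100 nM quencher-labelled ATP aptamer, imaged in selection buffer and then after 15 min with 500 uM ATP at 22 °C. Five such cycles were run, with NaOH stripping and re-annealing between them.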
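Further: ATP exposure 15 min at 22 °C before imaging.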

Sequence | switch fluorescence ratio
ACATTATTGT | 0.982 ± 0.011
ACATTATTTT | 1.02 ± 0.025
ACATTGAGCG | 1.03 ± 0.028
ACATTGAGGG | 1.057 ± 0.0028
ACATTGATCG | 1.03 ± 0.017
ACATTGATGG | 1.028 ± 0.00017
ACATTGGCTA | 1 ± 0.035
ACATTGTGTA | 0.9955 ± 0.0068
ACATTGTTAT | 1.07 ± 0.1
ACATTTCAAA | 0.987 ± 0.0069
ACATTTGCCC | 1.069 ± 0.003
ACATTTTCGT | 0.991 ± 0.032
ACCAAACGTG | 1.23 ± 0.055
ACCAAAGAGA | 0.993 ± 0.013
ACCAAGCTTT | 1.04 ± 0.016
ACCAATTTTT | 1.03 ± 0.026
ACCACATATC | 1.1 ± 0.06
ACCACCAGAA | 1.13 ± 0.02
ACCACGGGCG | 1.09 ± 0.018
ACCAGAGGTA | 1.01 ± 0.014
ACCAGGATGC | 1.225 ± 0.0042
ACCAGGGACG | 1.02 ± 0.073
ACCAGGGCTT | 1.08 ± 0.021
ACCAGGGTGG | 1.03 ± 0.068
ACCAGGTCGT | 1.51 ± 0.05

Sequence | switch fluorescence ratio
ACCAGTTATT | 1.08 ± 0.14
ACCATGTATC | 0.998 ± 0.026
ACCATTATTT | 1.03 ± 0.014
ACCATTCAAA | 1 ± 0.021
ACCCAAATCA | 1.04 ± 0.019
ACCCAGACGC | 1.35 ± 0.058
ACCCATGCTT | 1.06 ± 0.013
ACCCCAAATG | 1.124 ± 0.0098
ACCCCATGTT | 1.86 ± 1
ACCCCGGTCG | 1.167 ± 0.0062
ACCCGTTGTT | 1.01 ± 0.039
ACCCTAGGGT | 0.994 ± 0.035
ACCCTCGAGA | 1.06 ± 0.06
ACCCTGGCAA | 1.36 ± 0.41
ACCCTGGTAT | 1.02 ± 0.017
ACCCTTTTTG | 0.986 ± 0.025
ACCGAATAAT | 1.03 ± 0.019
ACCGACGGGA | 2.72 ± 2
ACCGACTTGC | 1.09 ± 0.018
ACCGATGCAC | 4.12 ± 1.2
ACCGCCGTCA | 1.08 ± 0.012
ACCGCGTTTT | 1.03 ± 0.041
ACCGCTTGTA | 1.05 ± 0.052
ACCGGAGCGG | 1.61 ± 0.042
ACCGGATATA | 1.006 ± 0.0081

Sequence | switch fluorescence ratio
ACCGGATCGT | 0.9828 ± 0.0035
ACCGGCGAGC | 1.01 ± 0.016
ACCGGCGTAG | 1 ± 0.016
ACCGGCTGCG | 1.08 ± 0.08
ACCGGGCCGA | 1.04 ± 0.016
ACCGGGCTTT | 0.988 ± 0.024
ACCGGGGATT | 1 ± 0.018
ACCGGGGCTA | 1.03 ± 0.031
ACCGGGGTGG | 0.991 ± 0.05
ACCGGGGTTT | 1 ± 0.051
ACCGGTGCTG | 0.98 ± 0.042
ACCGGTTAGC | 1.02 ± 0.015
ACCGTAAACG | 0.999 ± 0.12
ACCGTGTATG | 1.01 ± 0.027
ACCGTGTTAT | 0.9583 ± 0.0037
ACCTAAAGGA | 1.02 ± 0.016
ACCTAATTAG | 1.06 ± 0.073
ACCTCGAAGA | 1.03 ± 0.014
ACCTGCTTTT | 1.05 ± 0.051
ACCTGGCCTG | 0.999 ± 0.021
ACCTGGCGTA | 1.04 ± 0.0016
ACCTGGTCGT | 1.05 ± 0.048
ACCTGTAATA | 1.05 ± 0.0062
ACCTGTATA | 1.054 ± 0.0037
ACCTTAGTAT | 1.02 ± 0.022

Sequence | switch fluorescence ratio
ACCTTATCCT | 1.16 ± 0.012
ACCTTTTTCG | 1.07 ± 0.0096
ACGAAAATGG | 1.05 ± 0.062
ACGAAAGGGA | 1.11 ± 0.029
ACGAAATCGG | 1.03 ± 0.018
ACGAAATGAC | 1.68 ± 0.037
ACGAAGGGGT | 1.03 ± 0.021
ACGACAGCAG | 1.39 ± 0.033
ACGACCGACA | 1.95 ± 0.29
ACGACCGGGT | 1.2 ± 0.037
ACGACTGAAG | 1.014 ± 0.0015
ACGACTTCTT | 0.989 ± 0.019
ACGAGAGGGG | 0.996 ± 0.048
ACGAGTTACT | 1.1 ± 0.013
ACGATAACTT | 1.21 ± 0.034
ACGATACTTT | 1.37 ± 0.015
ACGATCTCCA | 1.035 ± 0.005
ACGATGGGGA | 1.04 ± 0.034
ACGATGGTTT | 0.984 ± 0.04
ACGATGTAAA | 0.9574 ± 0.0042
ACGATTCAAG | 1.02 ± 0.061
ACGATTGGTT | 1.005 ± 0.01
ACGCACTAAG | 1.61 ± 0.026
ACGCAGGCTT | 1.05 ± 0.011
ACGCAGGTAT | 1.04 ± 0.061

Source: the supplement of paper PMC10126150
